Drawing on paper doi:10.1101/2021.11.17.468837, this text covers stoichiometry N for one substance.

The assay deals with cyAbrB1 (Sll0359), N-terminally 6*His-tagged recombinant protein (Synechocystis sp. PCC 6803). The assay can be described thus: native gel or EMSA. (In general: Mobility shift assays separate free from complexed probe on a gel.)

The stoichiometry N is the number of molecules, sites or subunits per partner or assembly.

Consider “cyAbrB1 (Sll0359), N-terminally 6*His-tagged recombinant protein (natural protein)”, for which the stoichiometry N amounted to 2.
